Test results taken from article PMC5027573, “Structural Analysis of the Hg(II)-Regulatory Protein Tn501 MerR from Pseudomonas aeruginosa” (Scientific Reports, 2016).

Target: the molecule itself
Test: crystal structure; Hg(II)-bound truncated MerR (equimolar HgCl2); sitting-drop vapor diffusion at 16 °C, 0.1 M KCl, 0.01 M MgCl2, 0.1 M Tris pH 8.5, 30% PEG200; space group P3(1)21, one dimer in the asymmetric unit; Hg SAD, 2.8 Å

B1: C-terminal truncated Tn501 MerR (MerRTC10), mercury(II)-bound (domain or fragment, Pseudomonas aeruginosa, UniProt P0A183 1-134, looked up)
chain: MENNLENLTIGVFAKAAGVNVETIRFYQRKGLLLEPDKPYGSIRRYGEADVTRVRFVKSAQRLGFSLDEIAELLRLEDGTHCEEASSLAEHKLKDVREKMADLARMEAVLSELVCACHARRGNVSCPLIASLQG
notes: Mercuric resistance operon regulatory protein MerR of transposon Tn501, Pseudomonas aeruginosa; the last ten C-terminal residues were truncated; synthesized and codon-optimized merR gene; also called Hg2+-MerR; C-terminally truncated Tn501 MerR; source: E. coli BL21 (DE3), pET-30a, purified (HiTrap Phenyl FF, HisTrap HF, Superdex200 gel filtration)
  stoichiometry N: 2
